Laboratory results as given in publication PMC11143218, “Evolved histone tail regulates 53BP1 recruitment at damaged chromatin” (Nature Communications, 2024).
Non-standard residues stand in square brackets, D forms with d. No end group written: not given here. *: point of attachment. Biotin = O=C1N[C@H]2[C@H](CS[C@H]2CCCCC(=O)*)N1; pS = N[C@@H](COP(=O)(O)O)C(=O)O

Biological target: T1, MBP-53BP1 IRIF formation fragment a.a. 1220–1639 (human, UniProt Q12888 1220-1639)
T1 construct: 53BP1, minimal region for IRIF formation, a.a; also called in vitro purified 53BP1 a.a; source: E. coli BL21, purified (amylose resin, maltose elution)
Assay: pull-down; in vitro: MBP-purified protein incubated with 10.5 μg biotinylated peptide and 10 μL streptavidin beads, 1 h at 4 °C; washed three times with NETN; western blot
Details: both partners purified

T1 sequence (Q12888 1220-1639): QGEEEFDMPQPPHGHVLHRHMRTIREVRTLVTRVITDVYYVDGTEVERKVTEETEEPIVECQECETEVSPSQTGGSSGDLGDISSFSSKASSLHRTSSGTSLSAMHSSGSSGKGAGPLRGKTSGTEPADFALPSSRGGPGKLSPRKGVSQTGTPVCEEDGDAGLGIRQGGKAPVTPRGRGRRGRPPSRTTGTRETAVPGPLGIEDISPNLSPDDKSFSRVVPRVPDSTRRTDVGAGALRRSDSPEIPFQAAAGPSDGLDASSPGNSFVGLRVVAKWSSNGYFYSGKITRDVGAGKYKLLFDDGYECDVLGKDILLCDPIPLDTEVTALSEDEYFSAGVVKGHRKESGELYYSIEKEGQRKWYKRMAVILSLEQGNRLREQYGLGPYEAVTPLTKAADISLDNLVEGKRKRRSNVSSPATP

binding result: binds
B1: biotinylated phosphorylated S139 H2AX C-terminal tail peptide (peptide)
peptide: Biotin-TSATVGPKAPSGGKKATQA[pS]QEY
notes: also called 23-amino acid phosphorylated H2AX C-terminal tail peptide; γH2AX C-terminal tail; source: synthetic peptide, bought: genscript
